# Data reported in article PMC3488191, “Functional identification of the DNA packaging terminase from Pseudomonas aeruginosa phage PaP3”.
# T1: p01 small terminase subunit (Pseudomonas aeruginosa phage PaP3) (UniProt Q8H9R5)
# T1 sequence: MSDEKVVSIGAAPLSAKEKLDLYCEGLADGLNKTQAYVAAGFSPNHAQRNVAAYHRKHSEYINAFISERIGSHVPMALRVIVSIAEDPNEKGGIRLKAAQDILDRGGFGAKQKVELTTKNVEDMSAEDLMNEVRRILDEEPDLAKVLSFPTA
# T2: p03 large terminase subunit (Pseudomonas aeruginosa phage PaP3, UniProt Q8H9R7 1-482)
# T2 sequence: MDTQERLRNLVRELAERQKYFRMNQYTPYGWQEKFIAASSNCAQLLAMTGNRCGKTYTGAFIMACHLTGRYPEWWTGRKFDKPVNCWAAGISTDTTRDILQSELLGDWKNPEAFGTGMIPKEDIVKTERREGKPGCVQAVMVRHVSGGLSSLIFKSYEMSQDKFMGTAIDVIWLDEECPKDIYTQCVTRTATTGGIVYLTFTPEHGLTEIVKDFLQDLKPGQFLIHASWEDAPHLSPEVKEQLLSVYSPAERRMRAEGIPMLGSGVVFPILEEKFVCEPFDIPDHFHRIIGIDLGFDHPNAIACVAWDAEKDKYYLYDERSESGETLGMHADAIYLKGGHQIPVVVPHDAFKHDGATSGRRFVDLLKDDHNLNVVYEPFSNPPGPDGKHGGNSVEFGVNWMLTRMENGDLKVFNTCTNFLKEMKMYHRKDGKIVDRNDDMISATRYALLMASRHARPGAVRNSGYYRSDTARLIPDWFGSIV
# Tests used:
# [1] = molecular target: T1, p01 small terminase subunit (Pseudomonas aeruginosa phage PaP3); test: EMSA; conditions: 50 mM Tris-HCl pH 8.0, 50 mM NaCl, 10 mM MgCl2, 5% glycerol, 1.5 uM DNA, 37 C 30 min, stopped with 20 mM EDTA; 5% native PAGE in 0.5x TBE
# [2] = molecular target: T2, p03 large terminase subunit; test: EMSA; 10 mM Mg2+; 0.4 uM p03; 50 mM Tris-HCl pH 8.0, 50 mM NaCl, 10 mM MgCl2, 5% glycerol, 1.5 uM DNA, 37 C 30 min, stopped with 20 mM EDTA; 5% native PAGE in 0.5x TBE; conditions: protein: recombinant; tags: C-terminal His6 (pET-22b); label: 5'-biotin; blunt
# [3] = molecular target: T2, p03 large terminase subunit; test: EMSA; 10 mM Mg2+; 50 mM Tris-HCl pH 8.0, 50 mM NaCl, 10 mM MgCl2, 5% glycerol, 1.5 uM DNA, 37 C 30 min, stopped with 20 mM EDTA; 5% native PAGE in 0.5x TBE; conditions: protein: recombinant; tags: C-terminal His6 (pET-22b); label: 5'-biotin; blunt
molecule,measurement,setting,value
ATACTCCCCGTCGCGCTTGAACCACGGGGTCTGTCAATTGATTGCGCTGGGACAGGCTACCAGTCGGGCCTTCTATGGTACAAGGCCAGGACCTACGCTCTTTCGGAGTGTGCGTTATTCCCTCAGCTTTCGGGTTTCTCCCTTGTTCAGTCCAAGGACCGTCGAAGGTACACTTTCCCCAGGTGGCCGTCACCTGATGGGTGCCCATGTTAGAGCCGTGGGCTTGCCTTGTCAACCCT (double strand) [cos239dn],binding,[1],no binding
20-bp cos end sequence (dsDNA) DNA 1: GCCGGCCCCTTTCCGCGTTA DNA 2: TAACGCGGAAAGGGGCCGGC,binding result,[2],binds
24-bp non-cos DNA (dsDNA) DNA 1: GCACTGCAGTAACTTGTCAGTCAT DNA 2: ATGACTGACAAGTTACTGCAGTGC,binding result,[3],no binding
